This series concerns the molecule itself. Put plainly: AUC.

The source of these data is publication PMC6899773 (Chemistry (Weinheim an Der Bergstrasse, Germany), 2019).

B1: DC-SIGN extracellular domain (ECD) (domain or fragment, UniProt Q9NNX6 66-404, looked up)
chain: SISQEQSRQDAIYQNLTQLKAAVGELSEKSKLQEIYQELTQLKAAVGELPEKSKLQEIYQELTRLKAAVGELPEKSKLQEIYQELTWLKAAVGELPEKSKMQEIYQELTRLKAAVGELPEKSKQQEIYQELTRLKAAVGELPEKSKQQEIYQELTRLKAAVGELPEKSKQQEIYQELTQLKAAVERLCHPCPWEWTFFQGNCYFMSNSQRNWHDSITACKEVGAQLVVIKSAEEQNFLQLQSSRSNRFTWMGLSDLNQEGTWQWVDGSPLLPSFKQYWNRGEPNNVGEEDCAEFSGNGWNDDKCNLAKFWICKKSAASCSRDEEQFLSPAPATPNPPPA
Consider B1, for which the “stoichiometry N” value was 4.
